Reference: patent US20130158098A1, “Alkenyl Substituted Cycloaliphatic Compounds as Chemical Inducers of Proximity” (priority 2010, published 2013)

Target: VP16-PYLcs (VP16 transactivation domain fused to PYL1 aa 33-209) (herpes simplex virus; Arabidopsis thaliana) (UniProt Q8VZS8)
Assay: cell-based or functional assay

Chain of VP16-PYLcs (VP16 transactivation domain fused to PYL1 aa 33-209) (herpes simplex virus; Arabidopsis thaliana) (Q8VZS8 33-209 limits assumed): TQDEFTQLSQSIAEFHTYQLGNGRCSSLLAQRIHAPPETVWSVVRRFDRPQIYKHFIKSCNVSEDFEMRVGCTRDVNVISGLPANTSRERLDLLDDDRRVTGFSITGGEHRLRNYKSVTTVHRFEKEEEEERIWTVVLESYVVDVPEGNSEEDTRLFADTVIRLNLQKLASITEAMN

With “Gal4 DBD-ABIcs, wild type (Gal4 DNA binding domain fused to ABI1 aa 126-423) (from UniProt P04386 1-147)” the luciferase production (UAS-luciferase reporter, murine ES, NIH 3T3 and HEK 293T cells) was 1000 fold.
